Experimental data as given in paper PMC4559445.

Target: PbTpk2^(226-583)-His6 (P. brasiliensis)

PbGpb1-GST (natural protein) gave an in vitro kinase activity (ADP-Glo) of 3 μM PbTpk2 on 50 μM kemptide in the presence of 4 μM PbGpb1, relative to PbTpk2 with kemptide alone of 40 % reduction.
